B1: SOAT1 (parent)
chain: GVLILFLTFFAFLHCWLNAFAEML
B2: C22orf15 (parent)
chain: PRGRAHLLPNPYQQDFLGLPEELR

Variants of: B1
Assay: protein stability index of a GFP-peptide fusion (GPS, HEK-293T) (PSI 1-6); higher = more stable
Conditions: c terminus: a fixed tail appended
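Note: lentivirally expressed fusions sorted by FACS into six bins by GFP to DsRed ratio, PSI derived from sequencing read proportions per bin multiplied by bin number.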

Variant | protein stability index
L17Q | 2.24
L17R | 3.44
L17S | 1.44
L17T | 2.88
L17V | 3.02
L17W | 2.44
L17Y | 3.42
N18C | 1.59
N18D | 1.71
N18E | 3.51
N18F | 3.51
N18G | 2.52
N18H | 2.92
N18I | 2.85
N18K | 2.48
N18L | 3.64
N18M | 2.78
N18P | 3.85
N18Q | 2.81
N18R | 2.55
N18S | 2.51
N18T | 3
N18V | 2.45

Variant | protein stability index
N18W | 2.94
N18Y | 2.61
A19C | 2.73
A19D | 2.85
A19E | 3.48
A19F | 1.68
A19G | 3.14
A19H | 3.33
A19I | 2.76
A19K | 2.96
A19L | 3.05
A19M | 3.03
A19N | 2.8
A19P | 2.31
A19Q | 2.59
A19R | 1.64
A19S | 2.83
A19T | 2.82
A19V | 2.77
A19W | 1.73
A19Y | 2.29
F20A | 3.08
F20C | 2.33

Variant | protein stability index
F20D | 3.92
F20E | 2.67
F20G | 2.22
F20H | 3.21
F20I | 2.67
F20K | 2.71
F20L | 2.56
F20M | 2.85
F20N | 2.01
F20P | 2.93
F20R | 2.89
F20S | 2.94
F20T | 1.98
F20V | 3.21
F20W | 3.57
F20Y | 2.9
A21C | 2.48
A21D | 2.14
A21E | 1.83
A21F | 3.12
A21G | 2.77
A21H | 2.98
A21I | 2.93

Variant | protein stability index
A21K | 2.01
A21L | 1.4
A21M | 3.62
A21N | 2.76
A21P | 2.29
A21Q | 3.1
A21R | 2.11
A21S | 1.84
A21T | 2.29
A21V | 2.73
A21Y | 1.84
E22A | 1.99
E22C | 2.74
E22D | 2.19
E22F | 3.34
E22G | 2.16
E22H | 3.56
E22I | 2.95
E22K | 2.31
E22L | 2.92
E22M | 3.66
E22N | 2.79
E22P | 3.59

Variant | protein stability index
E22Q | 2.63
E22R | 1.7
E22S | 3.37
E22T | 2.47
E22V | 3.24
E22W | 3.25
E22Y | 2.22
M23A | 2.44
M23C | 3.08
M23D | 2.29
M23E | 1.75
M23F | 2.67
M23G | 2.18
M23H | 2.55
M23I | 2.85
M23K | 2.91
M23L | 2.88
M23N | 2.68
M23P | 3.44
M23Q | 2.73
M23R | 2.77
M23S | 3.71
M23T | 2.98

Variant | protein stability index
M23V | 2.08
M23W | 2.61
M23Y | 2.54
L24A | 2.69
L24C | 3.67
L24D | 1.75
L24E | 3.41
L24F | 2.23
L24G | 3.4
L24I | 2.63
L24K | 3.06
L24M | 2.72
L24N | 2.98
L24P | 2.68
L24Q | 3.14
L24R | 2.33
L24S | 3.29
L24T | 3.04
L24V | 2.75
L24W | 2.06
L24Y | 2.88

Variants of: B2
Assay: as above
Conditions: c terminus: a fixed tail appended

Variant | protein stability index
P1A | 3.34
P1C | 2.22
P1D | 4.1
P1E | 3.96
P1F | 2.61
P1G | 3.75
P1H | 3.6
P1I | 2.37
P1K | 3.22
P1L | 2.64
P1M | 2.93
P1N | 3.69
P1Q | 3.72
P1R | 3.06
P1S | 3.23
P1T | 3.52
P1V | 2.83
P1W | 2.92
P1Y | 3.11
R2A | 4.04
R2C | 2.26
R2D | 3.44
R2E | 4.69
R2F | 3.31
R2G | 4

Variant | protein stability index
R2H | 3.87
R2I | 3.62
R2K | 3.75
R2L | 3.76
R2M | 4.08
R2N | 3.46
R2P | 4.18
R2Q | 4.24
R2S | 4.15
R2T | 4.22
R2V | 3.81
R2W | 3.33
R2Y | 3.5
G3A | 4.32
G3C | 3.15
G3D | 4.03
G3E | 3.82
G3F | 3.79
G3H | 3.79
G3I | 3.83
G3K | 3.16
G3L | 3.51
G3M | 2.7
G3N | 3.61
G3P | 3.77

Variant | protein stability index
G3Q | 3.45
G3R | 3.52
G3S | 3.52
G3T | 2.66
G3V | 3.93
G3W | 3.27
G3Y | 3.72
R4A | 4.23
R4C | 2.85
R4D | 4.25
R4E | 3.96
R4F | 3.77
R4G | 4.27
R4H | 4.06
R4I | 3.24
R4K | 3.36
R4L | 3.59
R4M | 3.42
R4N | 3.99
R4P | 3.92
R4Q | 3.73
R4S | 3.81
R4T | 3.68
R4V | 3.86
R4W | 2.96

Variant | protein stability index
R4Y | 3.57
A5C | 2.69
A5D | 4.25
A5E | 3.9
A5F | 2.69
A5G | 3.63
A5H | 3.78
A5I | 2.96
A5K | 3.32
A5L | 3.12
A5M | 3.48
A5N | 4.1
A5P | 3.56
A5Q | 4.07
A5R | 3.34
A5S | 4.04
A5T | 4.05
A5V | 3.63
A5W | 2.62
A5Y | 2.98
H6A | 3.57
H6C | 3.68
H6D | 4.4
H6E | 4.58
H6F | 2.99

Variant | protein stability index
H6G | 4.26
H6I | 3.65
H6K | 3.87
H6L | 3.44
H6M | 4.04
H6N | 4.26
H6P | 3.93
H6Q | 3.75
H6R | 3.71
H6S | 3.81
H6T | 3.87
H6V | 3.54
H6W | 2.85
H6Y | 3.02
L7A | 4.23
L7C | 3.84
L7D | 3.96
L7E | 4.62
L7F | 3.84
L7G | 4.08
L7H | 3.9
L7I | 3.8
L7K | 4
L7M | 4.18
L7N | 4.33

Variant | protein stability index
L7P | 4.06
L7Q | 3.86
L7R | 4.12
L7S | 4.98
L7T | 5.36
L7V | 4.12
L7W | 3.24
L7Y | 3.92
L8A | 3.58
L8C | 4.14
L8D | 4.6
L8E | 3.96
L8F | 3.49
L8G | 3.59
L8H | 3.86
L8I | 3.94
L8K | 3.98
L8M | 3.95
L8N | 4.09
L8P | 4
L8Q | 4.24
L8R | 3.56
L8S | 3.93
L8T | 3.23
L8V | 4.02

Variant | protein stability index
L8W | 2.56
L8Y | 3.25
P9A | 3.66
P9C | 2.66
P9D | 3.79
P9E | 3.89
P9F | 2.94
P9G | 2.77
P9H | 3.29
P9I | 2.88
P9K | 3.73
P9L | 3.35
P9M | 3.8
P9N | 3.77
P9Q | 3.84
P9R | 3.18
P9S | 3.88
P9T | 3.61
P9V | 3.71
P9W | 2.53
P9Y | 3.32
N10A | 3.95
N10C | 3.58
N10D | 4.16
N10E | 3.61

Variant | protein stability index
N10F | 3.35
N10G | 4
N10H | 4.06
N10I | 3.97
N10K | 3.77
N10L | 3.69
N10M | 3.54
N10P | 4.07
N10Q | 4.12
N10R | 3.53
N10S | 4.29
N10T | 4.05
N10V | 4.14
N10W | 2.88
N10Y | 3.46
P11A | 3.41
P11C | 3.51
P11D | 4.12
P11E | 4.74
P11F | 3.44
P11G | 4.3
P11H | 3.33
P11I | 3.55

Reference: the supplement of paper PMC10567573
